Test results as given in patent US20170335314.

Test system: biotinylated anti-BRD7 Fab fragment (murine IgG1 isotype; bFab) (Mus musculus)
Assay: pulldown
Conditions: streptavidin bead capture with QPCR readout; PBSM (PBS with 1 mM MgCl2), overnight

In the case of “GCAAAGACATCTGGACACGCCACTAAGTGGAGGTGATCTGTACTTCATTTATGAGATCGCGGCGAGGAGAAGGAGACTTAGAGGC [aptamer 228 (10AptR1)]”, the Kd is reported as 11 nM.
